Test results reported in the supplement of paper PMC11246515.
± gives the standard deviation of the averaged measurements.

Assay: total protein half-life in vivo (active degradation + dilution); higher = more stable protein
[1] = E. coli NCM3722 delta-clpP delta-lon delta-hslV, growth: N-lim chemostat, doubling time 6 h
[2] = E. coli NCM3722 delta-lon, growth: N-lim chemostat, doubling time 6 h
[3] = E. coli NCM3722 delta-smpB, growth: N-lim chemostat, doubling time 6 h
[4] = wild type E. coli NCM3722, growth: C-lim chemostat, doubling time 6 h
[5] = wild type E. coli NCM3722, growth: C-lim chemostat, doubling time 12 h
[6] = wild type E. coli NCM3722, growth: N-lim chemostat, doubling time 6 h
[7] = E. coli NCM3722 delta-clpP, growth: N-lim chemostat, doubling time 6 h
[8] = E. coli NCM3722 delta-hslV, growth: N-lim chemostat, doubling time 6 h
[9] = wild type E. coli NCM3722, growth: C-lim chemostat, doubling time 3 h
[10] = wild type E. coli NCM3722, growth: N-lim chemostat, doubling time 12 h
[11] = wild type E. coli NCM3722, growth: P-lim chemostat, doubling time 6 h
[12] = wild type E. coli NCM3722, growth: P-lim chemostat, doubling time 12 h

Sequence of P0AFC7 (chain, as listed by the source): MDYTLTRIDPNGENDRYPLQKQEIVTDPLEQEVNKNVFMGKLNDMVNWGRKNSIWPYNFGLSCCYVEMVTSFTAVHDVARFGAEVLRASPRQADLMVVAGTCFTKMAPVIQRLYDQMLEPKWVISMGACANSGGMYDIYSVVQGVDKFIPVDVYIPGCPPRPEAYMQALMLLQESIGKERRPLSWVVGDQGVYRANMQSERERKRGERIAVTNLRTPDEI

MYRIGELAKMAEVTPDTIRYYEKQQMMEHEVRTEGGFRLYTESDLQRLKFIRHARQLGFSLESIRELLSIRIDPEHHTCQESKGIVQERLQEVEARIAELQSMQRSLQRLNDACCGTAHSSVYCSILEALEQGASGVKSGC [P0ACS5]
total protein half-life in vivo [1]: 4.46 ± 0.81 h
total protein half-life in vivo [2]: 2.16 h
total protein half-life in vivo [3]: 0.555 ± 0.043 h
total protein half-life in vivo [4]: 0.866 h
total protein half-life in vivo [5]: 1 h
total protein half-life in vivo [6]: 0.748 ± 0.26 h

MYTKIIGTGSYLPEQVRTNADLEKMVDTSDEWIVTRTGIRERHIAAPNETVSTMGFEAATRAIEMAGIEKDQIGLIVVATTSATHAFPSAACQIQSMLGIKGCPAFDVAAACAGFTYALSVADQYVKSGAVKYALVVGSDVLARTCDPTDRGTIIIFGDGAGAAVLAASEEPGIISTHLHADGSYGELLTLPNADRVNPENSIHLTMAGNEVFKVAVTELAHIVDETLAANNLDRSQLDWLVPHQANLRIISATAKKLGMSMDNVVVTLDRHGNTSAASVPCALDEAVRDGRIKPGQLVLLEAFGGGFTWGSALVRF [P0A6R0]
total protein half-life in vivo [1]: 5.01 ± 0.12 h
total protein half-life in vivo [7]: 4.93 ± 0.2 h
total protein half-life in vivo [8]: 4.91 ± 0.11 h
total protein half-life in vivo [2]: 5.578 ± 0.021 h
total protein half-life in vivo [3]: 4.564 ± 0.018 h
total protein half-life in vivo [9]: 2.89 ± 0.036 h
total protein half-life in vivo [4]: 5.36 ± 0.51 h
total protein half-life in vivo [5]: 9.94 ± 0.71 h
total protein half-life in vivo [6]: 4.91 ± 0.27 h
total protein half-life in vivo [10]: 9.3 ± 1 h
total protein half-life in vivo [11]: 5.907 ± 0.0094 h
total protein half-life in vivo [12]: 12.9 ± 1.5 h

MYTQTLYELSQEAERLLQLSRQQLQLLEKMPLSVPGDDAPQLALPWSQPNIAERHAMLNNELRKISRLEMVLAIVGTMKAGKSTTINAIVGTEVLPNRNRPMTALPTLIRHTPGQKEPVLHFSHVAPIDCLIQQLQQRLRDCDIKHLTDVLEIDKDMRALMQRIENGVAFEKYYLGAQPIFHCLKSLNDLVRLAKALDVDFPFSAYAAIEHIPVIEVEFVHLAGLESYPGQLTLLDTPGPNEAGQPHLQKMLNQQLARASAVLAVLDYTQLKSISDEEVREAILAVGQSVPLYVLVNKFDQQDRNSDDADQVRALISGTLMKGCITPQQIFPVSSMWGYLANRARYELANNGKLPPPEQQRWVEDFAHAALGRRWRHADLADLEHIRHAADQLWEDSLFAQPIQALLHAAYANASLYALRSAAHKLLNYAQQAREYLDFRAHGLNVACEQLRQNIHQIEESLQLLQLNQAQVSGEIKHEIELALTSANHFLRQQQDALKVQLAALFQDDSEPLSEIRTRCETLLQTAQNTISRDFTLRFAELESTLCRVLTDVIRPIEQQVKMELSESGFRPGFHFPVFHGVVPHFNTRQLFSEVISRQEATDEQSTRLGVVRETFSRWLNQPDWGRGNEKSPTETVDYSVLQRALSAEVDLYCQQMAKVLAEQVDESVTAGMNTFFAEFASCLTELQTRLRESLALRQQNESVVRLMQQQLQQTVMTHGWIYTDAQLLRDDIQTLFTAERY [P0DM85]
total protein half-life in vivo [9]: 2.44 ± 0.21 h
total protein half-life in vivo [5]: 5.52 ± 1.4 h
total protein half-life in vivo [11]: 3.43 ± 0.63 h
total protein half-life in vivo [12]: 6.3 ± 0.69 h

MYTSGYAHRSSSFSSAASKIARVSTENTTAGLISEVVYREDQPMMTQLLLLPLLQQLGQQSRWQLWLTPQQKLSREWVQASGLPLTKVMQISQLSPCHTVESMVRALRTGNYSVVIGWLADDLTEEEHAELVDAANEGNAMGFIMRPVSASSHATRQLSGLKIHSNLYH [P0AFZ5]
total protein half-life in vivo [1]: 5.07 ± 0.91 h
total protein half-life in vivo [2]: 0.671 ± 0.059 h

P0AAG3
total protein half-life in vivo [1]: 6.26 ± 0.74 h
total protein half-life in vivo [7]: 6.4 ± 1.1 h
total protein half-life in vivo [8]: 6.83 ± 1.4 h
total protein half-life in vivo [2]: 6.053 ± 0.0072 h
total protein half-life in vivo [3]: 5.56 ± 0.4 h
total protein half-life in vivo [9]: 3.02 ± 0.25 h
total protein half-life in vivo [4]: 6.06 ± 0.07 h
total protein half-life in vivo [5]: 11.3 ± 0.26 h
total protein half-life in vivo [6]: 5.82 ± 0.16 h
total protein half-life in vivo [10]: 11.6 ± 0.28 h
total protein half-life in vivo [11]: 5.56 ± 0.15 h
total protein half-life in vivo [12]: 11.4 ± 1.6 h

P0ADE2
total protein half-life in vivo [1]: 1.56 h
total protein half-life in vivo [4]: 0.174 h
total protein half-life in vivo [11]: 0.104 h
total protein half-life in vivo [12]: 0.888 ± 0.58 h

P0AFC7
total protein half-life in vivo [1]: 6.19 ± 0.65 h
total protein half-life in vivo [7]: 5.993 ± 0.019 h
total protein half-life in vivo [8]: 6.34 ± 0.17 h
total protein half-life in vivo [2]: 5.81 ± 1.1 h
total protein half-life in vivo [3]: 5.87 ± 0.17 h
total protein half-life in vivo [9]: 2.92 ± 0.093 h
total protein half-life in vivo [4]: 5.98 ± 0.26 h
total protein half-life in vivo [5]: 11.2 ± 1.5 h
total protein half-life in vivo [6]: 6.54 ± 0.77 h
total protein half-life in vivo [10]: 12.5 ± 0.86 h
total protein half-life in vivo [11]: 5.59 ± 0.15 h
total protein half-life in vivo [12]: 12.5 ± 0.61 h

P76347
total protein half-life in vivo [1]: 6.25 ± 0.88 h
total protein half-life in vivo [7]: 1.86 h
total protein half-life in vivo [10]: 3.04 h

P76578
total protein half-life in vivo [1]: 6.589 ± 0.03 h
total protein half-life in vivo [8]: 6.54 ± 0.12 h
total protein half-life in vivo [2]: 6.81 ± 0.67 h
total protein half-life in vivo [3]: 6.09 ± 0.11 h
total protein half-life in vivo [9]: 3.08 ± 0.13 h
total protein half-life in vivo [4]: 6.17 ± 0.39 h
total protein half-life in vivo [5]: 13.4 ± 0.82 h
total protein half-life in vivo [6]: 6.17 ± 0.06 h
total protein half-life in vivo [10]: 13.1 ± 0.32 h
total protein half-life in vivo [11]: 6.16 ± 0.085 h
total protein half-life in vivo [12]: 12.7 ± 0.14 h
